Test results from CN112812179A (UNIV BEIJING, dated 2021).

T1: 人CMTM6氨基酸序列2到24位氨基酸的多肽 (CMTM6 N2-24) (human, UniProt Q9NX76 2-24, C末端耦联BSA (the BSA conjugate is the one made for ELISA, paragraph 46; the KLH conjugate was used for immunisation))
T1 construct: range 2-24; also called CMTM6 N2-24多肽; BSA耦联的CMTM6 N2-24多肽
T1 peptide (looked up): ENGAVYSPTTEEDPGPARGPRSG

T2: 人CMTM6 (endogenous, in 786-O cells and colon cancer tissue) (human, UniProt Q9NX76 1-183)
T2 construct: whole, on cells
T2 sequence (looked up): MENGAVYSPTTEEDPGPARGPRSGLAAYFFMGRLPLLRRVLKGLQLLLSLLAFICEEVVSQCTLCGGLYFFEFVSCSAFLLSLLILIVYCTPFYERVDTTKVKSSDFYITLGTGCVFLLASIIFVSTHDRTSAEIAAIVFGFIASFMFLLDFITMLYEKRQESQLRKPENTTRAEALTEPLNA

T3: Flag-CMTM6 (overexpressed in HEK293T cells) (human, UniProt Q9NX76 1-183)
T3 construct: Detected in denatured cell lysate by Western blot; the band is 26 kD; also called Flag-CMTM6融合表达载体; not shown: Flag tag
T3 sequence (looked up): T2 sequence (looked up)

B1: 1-19重链(HC)和轻链(LC)超表达上清 (recombinant 1-19 from HEK293T cells co-transfected with heavy and light chain plasmids) (antibody, V domains shown)
VH: EVQLQQSGAELVKPGASVKLSCASSGFNIKDTYIHWVKRRPEQGLEWIGRIDPANGKTYFHSNFQGKATITADTSSNTAHLELSSLTSEDTAVYYCAFLYDGPIDYWGQGTSVTVSS
VL: DVLMTQTPLSLPVSLGDQASISCRSSQSIVYRDGNTYLDWYLQKPGQSPKLLIYKVSNRFSGVPDRFSGSGSGTDFTLKISRVEAEDLGVYYCFQGSLFPYTFGGGTKLEI
notes: Full-length light and heavy chains amplified from 1-19 hybridoma cDNA, cloned into pcDNA3.1 and expressed in HEK293T; see the note of m1 for the printed FR/CDR pieces; also called 共转染本发明抗体1-19重轻链质粒的HEK293T细胞上清
B2: 鼠抗人CMTM6单克隆抗体1-19 (purified from hybridoma supernatant) (antibody, V domains shown)
VH: B1 VH
VL: B1 VL
notes: also called 1-19mAb; 本发明抗体1-19

Assays:
[1] = molecular target: T1, 人CMTM6氨基酸序列2到24位氨基酸的多肽 (CMTM6 N2-24); test: indirect ELISA, serially diluted peptide coated on the plate
[2] = molecular target: T2, 人CMTM6 (endogenous, in 786-O cells and …); test: Western blot of 786-O lysates, compared with CMTM6 knockout clones 2E7 and 4D10
[3] = molecular target: T3, Flag-CMTM6 (overexpressed in HEK293T …); test: Western blot of HEK293T lysates, 1 ug/mL primary antibody; empty-vector control gave no signal

Binder	binding result [1]	binding result [2]	binding result [3]
B1	binds		
B2		binds	binds
